The target in the data set is Complement component 3 (C3) (Homo sapiens) (UniProt P01024+P01024). The data set is described as follows: filter. The note with it: 3'-3' idT.
[1] abbreviates: all U = NapdU, T = dT, SB18T0.01, 37C.
Setting [2] is: all U in listing = NapdU, SB18T0.01, 37C.
The mark [3] stands for this setting: all P = NapdU, U1 = 2'-OMe-U, 2'-OMe at 1,2,3,5,7,9,10,13,19,20,22-28, C3-spacer replaces C17, SB18T0.01, 37C.

Sequence of Complement component 3 (C3) (Homo sapiens) (P01024 23-667, chain 1 of 2): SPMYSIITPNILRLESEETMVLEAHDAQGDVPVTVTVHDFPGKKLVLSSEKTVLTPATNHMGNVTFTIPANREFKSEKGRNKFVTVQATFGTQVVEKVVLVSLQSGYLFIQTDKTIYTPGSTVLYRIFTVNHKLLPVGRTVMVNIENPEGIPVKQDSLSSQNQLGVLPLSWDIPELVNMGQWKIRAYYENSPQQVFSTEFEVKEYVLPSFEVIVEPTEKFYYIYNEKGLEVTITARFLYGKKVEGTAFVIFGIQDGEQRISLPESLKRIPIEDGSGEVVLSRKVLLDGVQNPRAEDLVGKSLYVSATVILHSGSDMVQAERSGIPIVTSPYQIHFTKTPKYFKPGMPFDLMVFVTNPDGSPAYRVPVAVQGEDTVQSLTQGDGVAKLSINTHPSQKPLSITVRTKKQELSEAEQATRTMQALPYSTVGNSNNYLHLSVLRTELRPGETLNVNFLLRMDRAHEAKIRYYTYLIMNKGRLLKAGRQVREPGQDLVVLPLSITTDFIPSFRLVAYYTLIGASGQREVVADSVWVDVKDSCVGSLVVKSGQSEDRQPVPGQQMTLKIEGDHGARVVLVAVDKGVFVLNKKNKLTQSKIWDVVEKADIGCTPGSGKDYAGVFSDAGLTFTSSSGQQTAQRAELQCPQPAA
Sequence of Complement component 3 (C3) (Homo sapiens) (P01024 672-1663, chain 2 of 2): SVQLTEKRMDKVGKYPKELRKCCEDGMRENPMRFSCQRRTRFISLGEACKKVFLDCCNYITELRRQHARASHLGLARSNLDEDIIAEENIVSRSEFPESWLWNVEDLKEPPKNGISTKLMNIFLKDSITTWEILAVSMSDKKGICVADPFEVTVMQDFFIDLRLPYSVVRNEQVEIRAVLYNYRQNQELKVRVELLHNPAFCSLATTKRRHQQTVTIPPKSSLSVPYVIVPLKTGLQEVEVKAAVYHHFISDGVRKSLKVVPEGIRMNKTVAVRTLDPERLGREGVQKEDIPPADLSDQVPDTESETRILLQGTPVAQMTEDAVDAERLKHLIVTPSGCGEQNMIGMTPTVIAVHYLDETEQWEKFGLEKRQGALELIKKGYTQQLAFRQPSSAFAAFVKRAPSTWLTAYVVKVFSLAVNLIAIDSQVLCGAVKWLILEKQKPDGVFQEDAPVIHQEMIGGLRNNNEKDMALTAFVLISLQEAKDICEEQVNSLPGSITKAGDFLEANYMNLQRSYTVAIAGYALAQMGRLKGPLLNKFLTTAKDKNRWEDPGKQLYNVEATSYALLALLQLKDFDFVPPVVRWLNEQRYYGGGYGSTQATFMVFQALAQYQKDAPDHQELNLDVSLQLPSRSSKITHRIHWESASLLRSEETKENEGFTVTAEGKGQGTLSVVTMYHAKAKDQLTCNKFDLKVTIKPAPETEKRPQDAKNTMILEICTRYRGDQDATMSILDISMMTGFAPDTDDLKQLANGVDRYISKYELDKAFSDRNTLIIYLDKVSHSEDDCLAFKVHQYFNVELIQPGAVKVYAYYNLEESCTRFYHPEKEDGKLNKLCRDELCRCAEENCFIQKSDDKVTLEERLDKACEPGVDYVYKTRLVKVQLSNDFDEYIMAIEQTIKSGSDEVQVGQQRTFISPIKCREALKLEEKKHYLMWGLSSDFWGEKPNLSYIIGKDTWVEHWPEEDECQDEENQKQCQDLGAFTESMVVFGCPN

For the sequence “ACTCCCCGGUGACUCAAUAGUCCGUACGUUCCCGGTCCGAACGCGGAGGA [8491-94_18]”, the Kd – broadly, the constant that tells how readily two partners part at equilibrium – under setting [1] was determined as 0.0421 nM.

With “CCGGUGACUCAUAGUCCGUACGUUCCCGG [8491-94_39]”, where the note is “all U = NapdU, C3-spacer replaces A12, SB18T0.01, 37C”, the Kd is 0.31 nM.

As for “ACTCCAGACUGUAGUUGACUCCAUAGUCCGUACGUUUACACAUUGGAGGA [8491-189_3]”, the Kd under setting [2] came to 0.0335 nM.

“CGGUGACUCAAUAGUCCGUACGUUCCCG [8491-94_79]” gave a Kd (P = NapdU (all U), 2'-OMe C21, SB18T0.01, 5 mM MgCl2, 37 C) of 0.273 nM.

For the setting “all U = NapdU, C3-spacer replaces C7, C9, C17, C25, SB18T0.01, 37C”, CGGUGAUAAUAGUCGUACGUUCCG [8491-94_55] displayed a Kd of 0.0415 nM.

In turn, “ACTCCCUUAAAAGGGUCGUUGACUCCAUAGUCCGUACGUUUCCGAGAGGA [8491-394_3]” gave an equilibrium dissociation constant (Kd) under setting [2] of 0.448 nM.

Sequence “CGGUGACUCAAUAGUCCGUACGUUCCCGG [8491-94_31]” came in with a Kd (all U = NapdU, C3-spacer replaces C2, SB18T0.01, 37C) of 0.14 nM.

Consider “TGGUGACUCAAUAGUCGUACGUUCCCA [8491-94_129]”, for which the Kd (all P = NapdU, T1 = dT, 2'-OMe at 2,3,5,7,9,10,13,19,20,22-28, C3-spacer replaces C17, SB18T0.01, 37C) was determined as 0.0179 nM.

Where the note is “all U = NapdU, SB18T0.01, 37C”, “CGGUGACUCAAUAGUCCGUACGUUCCCGG [8491-94_29]” showed a Kd of 0.0581 nM.

For the setting “P = NapdU (all U), 2'-OMe C26, SB18T0.01, 5 mM MgCl2, 37 C”, “CGGUGACUCAAUAGUCCGUACGUUCCCG [8491-94_84]” came in with a Kd of 0.0738 nM.

Under setting [3], “UGGUGACUCAAUAGUCGUACAUUCCCA [8491-94_138]” displayed a dissociation constant (Kd) of 18.2 nM.

Regarding “CGGUGACUCAAUAGUCCGUACGUUCCCG [8491-94_88]”, the Kd (all U = NapdU, 2'-OMe at 1,3,5,7,13,28, SB18T0.01, 37C) was 0.0248 nM.

In turn, “UGGUGACUCAAUAGUCGUACGUUCCCA [8491-94_137]” yielded a Kd under setting [3] of 0.119 nM.

For the sequence “CGGUGACUCAAUAGUCGUACGUUCCCG [8491-94_98]”, the Kd (all U = NapdU, 2'-OMe at 1,2,3,5,7,9,10,13,19,20,22-28, C3-spacer replaces C17, SB18T0.01, 37C) was determined as 0.095 nM.

“ACTCCCCGGUGACUCAAUAGUCCGUACGUUCCCGGUCCGAACGCGGA [8491-94_4]” registered a Kd (all U = NapdU, SB18T0.01, 37C) of 0.0291 nM.

Sequence “CGGUGACUCAAUAGUCCGUACGUUCCCG [8491-94_75]” returned a Kd (P = NapdU (all U), 2'-OMe C17, SB18T0.01, 5 mM MgCl2, 37 C) of 0.214 nM.

For “CCCGGUGACUCAAUAGUCCGUACGUUCCCGGUCCGAACGCGGAGGA [8491-94_22]”, where the note is “all U = NapdU, SB18T0.01, 37C”, the Kd stood at 0.103 nM.

Consider “TGGUGACUCAAUAGUCCGUATGUUCCCA [8491-94_130]”, for which the Kd (all P = NapdU, T = dT, 2'-OMe at 2,3,5,7,9,10,13,19,20,22-28, SB18T0.01, 37C) turned out to be 17.9 nM.

For the sequence “ACTCCCCGGUGACUCAAUAGUCCGUACGUUCCCGGUCCGAACGC [8491-94_5]”, the equilibrium dissociation constant (Kd) (all U = NapdU, SB18T0.01, 37C) came out at 0.0298 nM.

Consider “ACTCCCUAACACGGCCGAGUUGACUCCCAUAGUCCGUACGUUUGCGAGGA [8491-387_3]”, for which the dissociation constant (Kd) under setting [2] came out at 0.519 nM.

In the case of “CGGUGACUCAAUAGUCCGUACGUUCCCG [8491-94_94]”, the Kd (all U = NapdU, 2'-OMe at 1,2,3,5,7,10,13,19,23-28, SB18T0.01, 37C) is 0.0557 nM.

In the case of “UGGUGACUCAAUAGUCCGUACAUUCCCA [8491-94_139]”, the Kd (all P = NapdU, U1 = 2'-OMe-U, 2'-OMe at 1,2,3,5,7,9,10,13,19,20,22-28, SB18T0.01, 37C) was 26.7 nM.

Sequence “GGGUGACUCAAUAGUCCGUACGUUCCCC [8491-94_127]” came in with a dissociation constant Kd (all U = NapdU, 2'-OMe at 1,2,3,5,7,9,10,13,19,20,22-28, SB18T0.01, 37C) of 0.045 nM.

In the case of “CGGUGACUCAAUAGUCCGUACGUUCCCG [8491-94_70]”, the Kd (P = NapdU (all U), 2'-OMe P12, SB18T0.01, 5 mM MgCl2, 37 C) stood at 0.338 nM.

Sequence “ACTCCAUGUCGGCGUUUGACUCAAUAGUCCGUACGUUUGGCCGGGCAGGGGAGGA [8491-405_3]” came in with a Kd under setting [2] of 0.159 nM.

As to “CCGGUGACUCAAUGUCCGUACGUUCCCGG [8491-94_40]”, the dissociation constant Kd (all U = NapdU, C3-spacer replaces A14, SB18T0.01, 37C) came to 1.99 nM.

Take “ACTCCUUGACUCGAUAGUCCGUACGUUUGCGGAAUACCAGCUGACGAGGA [8491-400_3]”: the Kd under setting [2] is 1.2 nM.

“CCGGUGACUCAAUAGUCCGUACGUUCCC [8491-94_28]”: the dissociation constant (Kd) (all U = NapdU, printed as 2.65-10, SB18T0.01, 37C) is 0.265 nM.

As for “CGGUGACUCAAUAGUCCGUACGUUCCCG [8491-94_78]”, the Kd (P = NapdU (all U), 2'-OMe A20, SB18T0.01, 5 mM MgCl2, 37 C) is 0.0718 nM.

In turn, “ACTCCCCGGUGACUCAAUAGUCCGUACGTUCCCGGUCCGAACGCGGAGGA [8491-94_16]” gave a Kd under setting [1] of 69.4 nM.

As to “CCGGUGACUCAAUAGUCCUACGUUCCCGG [8491-94_44]”, under “all U = NapdU, C3-spacer replaces G19, SB18T0.01, 37C”, the Kd was determined as 1.28 nM.

Consider “GGGUGACUCAAUAGUCCGUACAUUCCCC [8491-94_135]”, for which the dissociation constant Kd (all P = NapdU, 2'-OMe at 1,2,3,5,7,9,10,13,19,20,22-28, SB18T0.01, 37C) amounted to 15.3 nM.

Take “CCCCGGUGACUCAAUAGUCCGUACGUUCCCGGUCC [8491-94_24]”: the dissociation constant Kd (all U = NapdU, SB18T0.01, 37C) is 0.0535 nM.

Regarding “GGGUGACUCAAUAGUCGUACGUUCCCC [8491-94_134]”, where the note is “all P = NapdU, 2'-OMe at 1,2,3,5,7,9,10,13,19,20,22-28, C3-spacer replaces C17, SB18T0.01, 37C”, the Kd worked out at 0.107 nM.

“ACTCCCCGGUGACUCAATAGUCCGUACGUUCCCGGUCCGAACGCGGAGGA [8491-94_13]” displayed a dissociation constant Kd under setting [1] of 41.7 nM.

Under setting [2], “ACTCCAGCAACUUGACUCAAUAGUCCGUACGUUUAUGCGAGAACAGAGGA [8491-386_3]” yielded a Kd of 0.104 nM.

Take “ACTCCCCGGTGACUCAAUAGUCCGUACGUUCCCGGUCCGAACGCGGAGGA [8491-94_11]”: under setting [1], the dissociation constant (Kd) is 29.5 nM.

Values taken from patent publication US20170166895.
